{"source": "the NTF2 design screens of Basanta et al. (2020)", "data": [{"experiment": "protease stability score; higher = more stable; yeast display proteolysis, trypsin and chymotrypsin;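 also: relative to predicted unfolded state with 0 unfolded-like and 1 meaning tenfold more protease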", "values": [{"sequence": "DEDEETAIRVVKEFWKAVMTGDERHLKEYFDPHTRLDVDGQDQHGREDLTEFMFHMRVERTTIHNWRLQGDYVYLHVHVVGQINGKSKETEFYIVVFKINGRWSIHHITIR", "protease stability score": 1.33}, {"sequence": "SEEKKWEDDFMEDFLRAFHTGDFHRLLELLDPHVRIEINFENRKIDLIGREEFEKWMRRVKNARFHVEHWHSINGVNFSDTVLRYGDKEQKTELIFHVYNGKVKHIDVEFH", "protease stability score": 2.26}, {"sequence": "SEDEHHSREFLRVTEEILQTGDEEKREKNADPHMRFVLVYNGRETIIHGRETVVHFIHEELQRLGWDRFRVETERMSVYNGVVHIDIRIFVGDKTIHWHEHAKKVNGRWVYKSVEIRRE", "protease stability score": 1.03}, {"sequence": "SEIHDLITTMSRLFWDVIRTGDFEALEKLLDPHTRFEFLIGDKTEEYVGRHNVVRAIMDIWERLGIDHMHLKNVRYQGEKSDIDTEMHFDGRTFDTKIIIVVIDGKLHNVSIEFR", "protease stability score": 1.39}, {"sequence": "DEEEDHERHLVERTIHSLETGDWHETHELLDPHVRIQIVQGDKSLDLHGREAAVKFFLDWLRRVPNMRLEFKRIEDYDGVSHIDGVLRIGDKEMRFEIEIHVFNGVVKRMHIRMH", "protease stability score": 1.38}, {"sequence": "TEDEKVNDLAMEEIYTLMLTGDEERMEELFDPNVRMIIDGRRHVGREVFKDHMREWRWERTHVEDQRTFDGRAILHTRVDVTVGDKRRDVRIHIISSKINGRWVIKRIIIE", "protease stability score": 0.758}, {"sequence": "HEDKQMMEEAVKLWIETSLTGDWRTFHRLADPHVKLQQGDKDLHGREDTRELMEKLGLDRVDIHIRKFRLYDGRIELHVEENFNGKVFEIFIDMRKVDGRWELHRVELR", "protease stability score": 1.43}, {"sequence": "SEDEWWARYVTKLLIHSMKTGDEDLLHELADPSTKLDVGDKRYHGREEFRRLMRELRERADHLTISIKHIEVQGDKVDLDMHIRLEYGDKFIELRVHIHVEKVNGQWRLREREER", "protease stability score": 0.879}, {"sequence": "DHEHRFMEETLERLLHVWRTGDESLIHELADPEARSDVNGREHHGRERFVDTVRHLGVKHVELKDWTIQGEKVHLSTEVDVGDKTFDFEIIIYKINGKWLIHEMRVK", "protease stability score": 0.945}, {"sequence": "STEEEEAKKFSDIVLKAFDTGDEDLYRDLADPDTRSIINGVEKHGWKDIARHIKRIDHSDTHWDRVEMRVVNGQARVHVKGHIDVTIDGQRFVLRVTWHIIVTKIDGRWHLEELSLEVS", "protease stability score": 1.31}, {"sequence": "SEHHEVTEKLTRIILHQWDTGNERSLRKMMDPNARVEIEIGDKSWEYHGRENFRHAVERFDYLDNKEHKDERIVGDFSIIDGRVDGVQGDKRYDTNVEIIIIIVNGRIRAIRFIVR", "protease stability score": 1.26}, {"sequence": "DRLHEMAREFSEEWSRAVKTGDEQLYSKLVDPNARFSIGEFDFHGRDEVSRIMKHWRIEDVHLSSVSVQGEKVEIRGHLHGDFDGRRQDVEVIIIVLKVNGRWFLRDLEFR", "protease stability score": 1.31}, {"sequence": "DEDDEFMKRLAEEVIKNLHTGDWESLVHLMDPNALFEFDGVRNHGREQTDRFWEEVHERYPNVREKWDIHTIDVFNGRAKVDSRITFHFDGRDYVHKSEFHLIVFNGKVKSVHIHIR", "protease stability score": 0.158}, {"sequence": "DEEEEHMKHHLDLWIKLVQTGNEEHIARMIDPNARFDINGKEEHGRESFRKHLHEILKFFGVDRFHHEIKELRVIDGRVHSVTLWEINGQRLDTRIHAHKVNGVWLVHSLEIK", "protease stability score": 1.14}, {"sequence": "DEDEEEMHHRIEEHFEYLRTGDWKLIRNLVDPSVRVDVDGKEHHGWHEFVRYAVHIRVRRYELKHIRIIDGQVDFQGRIDGEIDGKFRSFNIFIIAQKIDGRWIFKEVRMH", "protease stability score": 1.68}, {"sequence": "SEEEKIAEDLAREIEEDWLTGNEEYIMHLADPNVKSHINIDGKRIDTHGMEELTHWLSRYPNVRIEPKRMDVQGEKITLDFELNIGDKRVRVILYHIIINGRIKEIRIIIHHV", "protease stability score": 0.995}, {"sequence": "SEDQKFFEELVRLMYEYSLTGDWELSERLLDPNALIDIDGVEFHGREIFVESMRHIRLDHIEIRHVESINGRIHAKTEVDGTVNGQRRRRDVEIHLLKVNGRWYIRRVNFK", "protease stability score": 2.45}, {"sequence": "DEEKKLYHHIWDRLRRALETGNEEELHKLADPDVRVIIGDKHFHGRDELYRLTEEIRVVITEIRLHDKDHQGDKVILDVEERVNVQVDGKETEYRFRSTLYFVKINGRWTLRRIELK", "protease stability score": 1.52}, {"sequence": "SEEEELAVKMWEIWLRSFLTGDETRLDQMMDPHAKLERIINGKRQHTHGWENVLKELIRLADELRVEHIHIRSEHRQGEKLDVKGEIDGDINGVRRRVEVDIHLVIVDGRIRHVKEVIR", "protease stability score": 1.12}, {"sequence": "DRLEELVERIAEIFLESYLTGDWKHLFDYFDPHAKLNIDGQESVGRESIQLMLEIHFKRVDHIQHFHRDDHRIQGNKFVFIGTLEGHVNGRTTRSRVKVEVTAVDGRIEELHIHIE", "protease stability score": 1.23}, {"sequence": "HEEKHEVQRFLEMLIELLVTGNEEILEHLADPHVRLEIDGRHFHGWKEFTRQYSELLKKLGADHVDMKIHEVHIIGDKVFIRGTDEFRVGDKTERKESHWVLLKVDGRWFIHSVKIG", "protease stability score": 1.99}, {"sequence": "TEEVHRYKNMLELFDHAVRTGNEDLLKILFDPNTRIEVGEYHNHGWEAIEFFLKRVDHEHIEDSKLTSHHVQGNYLESHGHMHATLHFNGKELRIHTHVRWHLDKFNGRWVIHSIIIN", "protease stability score": 1.33}, {"sequence": "DEEEKRAHEIVRRFLKWFLTGDEEASRKNMDPSVIMVINIGDKRIELHGMEQVSEFWHETVRRYDHIDIKLKDIEVQGDKAVTHGHLELRVGDKRFETDVQIILIYIDGRISFMSVNIV", "protease stability score": 2.48}, {"sequence": "DEEEHSLRLALKILIHTRRTGDEHLLTEMADPNTRLDVNGVEVHGMEIFSKLTHEVVKRADHVEVHVKHIDIYGDKIRVHSEINYRQGDKEHSEKVHLVIKKFNGRWILHFVHIG", "protease stability score": 1.48}, {"sequence": "STREEETRRISDMIVKSLMTGDWRTFHDLLDPNVKVEINGKEMHGWKAWEDYIREMGIKVFDYHRIEVDENHLLMDGIDKVDGREHRSHYEITIIDGRIRRVEIRHK", "protease stability score": 1.1}, {"sequence": "DERQEEARKMFEDVYKAVWTGDEEELLRLMDPNVRIDIDGKILHGREALSEEWKRVDHVHHEHHEDMKVIGNKLHVRGHIEVDIDGRNLRYTIDNYLVVVNGRIKEVKEREV", "protease stability score": 0.664}, {"sequence": "DEDHKSAEDMLRLLLETVITGDETLLEKLADPHVRLRVGDKKFIGMEELLRLLDEEKKRLGYTRVDLVLHHREVQGDKLHLETELRVNGRTYQTHWIALKINGRWIIHEVSIR", "protease stability score": 2.25}, {"sequence": "DEMEKMSRDVHKQLKNAFETGDESEMERLLDPHAKIDIGDKRLHGMEEYSHLLHEWRIKDLHIKDIQVQGDKAISDTHRYLEIGDKEYEREVIVYVIKVDGRWIIHSLVFR", "protease stability score": 0.777}, {"sequence": "DEKEELTRKLLELLLLAWSTGDEEVLMMLADPDVRITQGDKITHGRDELRREIEEIWRKFGADHIEVEPEDSRVQGDKVNNRTTLWLRINGRTIDFNVHVIIVIVNGVIHSMRFEIR", "protease stability score": 2.35}, {"sequence": "DERTEVSEEFHRILIKVWRTGDETLSHQLADPHAKAEIGDKTIHGRDLWKEVFRRESERYDHYDSRLKDVKVQGDYINLDVHLILHVDGVPVRTDVIEIVLKFNGRWRLHSFHVK", "protease stability score": 0.684}, {"sequence": "SEDEETARRIVKELLHDRLTGNEDRIRELADPDVRLIIGEFHMHGMDNFLRVLRFIYHHWRIHDTQMETHEIQGDKAYNHTIIDGEFDGKRHEWQIHILVLKVNGRWRLKTLELH", "protease stability score": 1.84}, {"sequence": "HEREHLLERMLKLLLELLLTGDEDTWKHYLDPHTRVIFNGREEHGRTAFERFVKELGVDHIEFKHVEIRHIGDKVHLHVDARVEINGRKHNMHLHIHLRKIDGQWEVKEFRIEIE", "protease stability score": 1.27}, {"sequence": "DEDTHVMEHALREWSHIFHTGDEDRLLELMDPRTRATVNGVDLHGMEEITRLETEIIRSHGMKFRTFLLEDFKTIDGKIHVHSRLNVDINGKERELRVRIIAKKVNGRWVVTKVEVG", "protease stability score": 0.952}, {"sequence": "DEDETFMREFLKELIHSLHTGDEETLLRLADPHTRVVINGRTLIGWETFDKLLKEARVHHHEIKRVRFFDGQVETDTRTDGRIDGVRVEIETTLIVKKVNGRWYMRSVIIT", "protease stability score": 0.686}, {"sequence": "DEEHEIIRKMFEIVKDMFKTGDEEITERLLDPNARIDIDGRDIVGRESVLWLFSQFKNLRHRDDRIDYQGNFVIVRGKLDINGRRVEIEIVAAKVDGRWILHSIKMQ", "protease stability score": 1.43}, {"sequence": "DELTEVADYLLEHFIRNLITGNEERVRHLADPHVRVIEVYGDKVEMRHGRDSMLKWMHDWRHHIRLKHYQIEHIEVQGEKSVVHGRLRGNIDGRDIDTRTHIEVVHIDGRFTSMRYEVR", "protease stability score": 0.555}, {"sequence": "SEEDKLSEELARRWIHLFETGDEETILHLADPHMKYILIINGRNEIHHGMKMMSEELKRIKGARFEIKRIEVQGDKVHLDVRIRIDGVEIDSEIDLKIVDGRLRELKVTIK", "protease stability score": 2.07}, {"sequence": "DESHQLMLELLEELFHLLLTGNEETILRLADPNTRLQINGQETHGRESARHYWQRFLEHWRLKDYRIRSLYSQGDKAIIHTEVVLHYNGRDFRVTTEIRLWVFDGKIHEIIIIIN", "protease stability score": 1.53}, {"sequence": "DERHQDLREVLTRLMHLLLTGDWDEFHRLADPSTQLEVGDFHFHGWEMVVEFLKRFYFHIRLRRFHIEHVRVINGRIDSDTRVESEVNGVRDVERTHVHLNKVDGRWVIKRMHME", "protease stability score": 0.966}, {"sequence": "HEIEEEVENAVRLISHLLLTGDEETLHDLADPEMRTIVGDKHLHGREMWSEVIRRLGVDVLVIKEIRVQGDWIHSDGVLLVNGQERDAKIHVRKVNGKWVITTFQLK", "protease stability score": 1.8}, {"sequence": "DELKDIMREVAEIIIRLEHTGDWRVFRKMADPNVRIDIGDFHIIGREEWRHWIEELRERIKNLKVEIRITHIESQGDKVHSDTRLIIRFDGVTEERTQHLHFVIVDGRVTSVRYENR", "protease stability score": 0.009}, {"sequence": "DEIEEEAKEMTKRILEDIKTGDEDSIFKLMDPNVKLVVGEKIHIGRETASKFFRKHWEDLGITRVESHLRTTHLIDGRVHVHSETNWNGVRIEVIIEIEKVNGRWVIREIHIHMH", "protease stability score": 1.29}, {"sequence": "DEDEREMERWFQEILEDLRTGDFRSISRMVDPHAKVDVNGQERHGREQVENLIRRFKNATIHITHVDLDVVNGKLVVRIDTRLHVDGQTRKTEIIVISNKVNGRWFMESLSFKIE", "protease stability score": 0.904}, {"sequence": "SQEERELHRALKELFDRFITGDWDKLQKLLDPEVRLNINGQEIHGREEVWKRKIEEFEKFGIDHIKFHLEHERRQGDKIELDGRLEIRVGDKRLEHEVRIVFLKIDGKWILRSEEIN", "protease stability score": 1.47}, {"sequence": "SDEERHAEFVSRRILHALRTGDWEILFKMADPNVKSTIGDKHHHGWEIMSDMYKKLWEDLGVKHLDLKRITYVDGVVHIDERIRIGDKTHNVELNFVVIDGVLRSVEVHVR", "protease stability score": 1.14}, {"sequence": "DRQKEILRELMEMFLTIFETGDEERFWELADPHVRHVIDIGDKEIRRVGREEMLKVWEHLYREMRIHRITLKDVRLVNGVFHAHVKVDGEYNGQRRETEMDIELNVVNGRVKSLIIHIQ", "protease stability score": 1.89}, {"sequence": "DEEVAKKMMEAWMKALQNGNDEQMKKLYDPTVRWEDGNTEKQGLEVVVKLVQTVKKKGIEFQVRKAKVKGNQVEVHYDMKVGDDTVTFTVQFRAQGGRIQEVRVEISEEARKAVKKG", "protease stability score": 1.32}, {"sequence": "SEREESFEKWVEMYERALQTGDEEHISRLMDPNARSNINGVELHGREQTLEWLRHVKENLGVERVDVRVNLHRYRVIGNYIESDQELILIYNGREFRFHFHFIARKINGRWVVDRLEIK", "protease stability score": 2.51}, {"sequence": "DEEEQAASHLEELIFRVIETGDWRNFYKMMDPDVRLDFNGQEYHGRENVTEAWHNSFHDLGIKHIELRTKNSQGDFLHLNFIVRYNGREFNVHFNWHVIDGRMKLIDIRVEHI", "protease stability score": 0.585}, {"sequence": "DEHEELMRRLMQLWMENWLTGDEDVLYKLADPNAKWDINGVKLHGREKMNEDRKEILERHGATFYLEIRDFTVINGRAHVDGHEDYIINGKRIRTDVQIILVIVNGKFKSEEVKIR", "protease stability score": 0.292}]}]}
